# Laboratory results published in US20140206609A1 (Sanofi, published 2014).
# *1 amine or outer side, *2 acyl side, *3 side chain or, on linkers, in order; H or OH if unused. Where no end group is shown, it is not given here. Side-chain parts run from the residue outwards. [ ]: non-standard residue; d: D form. The star is where a group is joined. γGlu = O=C(O)[C@H](CCC(=O)[*:2])N[*:1]; Stearoyl = CCCCCCCCCCCCCCCCCC(=O)*; Palmitoyl = CCCCCCCCCCCCCCCC(=O)*; Aib = CC(C)(N)C(=O)O; βAla = NCCC(=O)O
# T1: human GIP receptor (human, UniProt P48546 22-466)
# T1 sequence (looked up): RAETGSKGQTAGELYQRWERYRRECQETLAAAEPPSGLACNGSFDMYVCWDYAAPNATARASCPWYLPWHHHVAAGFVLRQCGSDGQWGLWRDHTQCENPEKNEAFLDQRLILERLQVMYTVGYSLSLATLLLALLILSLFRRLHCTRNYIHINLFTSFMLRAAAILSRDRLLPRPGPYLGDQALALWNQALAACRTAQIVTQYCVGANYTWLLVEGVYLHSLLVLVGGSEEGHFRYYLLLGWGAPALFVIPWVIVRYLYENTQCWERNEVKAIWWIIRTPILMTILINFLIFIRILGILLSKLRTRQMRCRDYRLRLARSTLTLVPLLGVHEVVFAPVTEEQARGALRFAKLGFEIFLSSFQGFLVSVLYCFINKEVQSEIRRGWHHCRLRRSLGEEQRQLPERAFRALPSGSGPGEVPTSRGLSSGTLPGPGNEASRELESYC
# Key:
# Experiment in all cases: cell-based or functional assay
# [1] = biological target: T1, human GIP receptor
# [2] = biological target: human glucagon receptor (human, UniProt P47871 26-477)
# [3] = biological target: human GLP-1 receptor (human, UniProt P43220 24-463)
# Chain of human glucagon receptor (P47871 26-477): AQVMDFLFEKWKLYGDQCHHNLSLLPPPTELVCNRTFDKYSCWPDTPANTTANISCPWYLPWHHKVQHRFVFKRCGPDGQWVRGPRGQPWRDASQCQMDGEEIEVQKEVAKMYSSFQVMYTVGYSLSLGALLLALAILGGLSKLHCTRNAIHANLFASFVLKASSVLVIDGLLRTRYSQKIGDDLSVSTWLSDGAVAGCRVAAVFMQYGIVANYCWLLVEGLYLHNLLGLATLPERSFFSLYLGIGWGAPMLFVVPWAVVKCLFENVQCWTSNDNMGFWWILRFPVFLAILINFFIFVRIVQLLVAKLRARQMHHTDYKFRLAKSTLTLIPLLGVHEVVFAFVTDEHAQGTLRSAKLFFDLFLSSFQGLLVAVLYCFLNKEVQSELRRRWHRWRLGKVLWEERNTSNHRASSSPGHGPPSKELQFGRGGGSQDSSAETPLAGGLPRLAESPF
Binder,EC50 hGIP R [pM] [1] [pM],EC50 hGLUC R [pM] [2] [pM],EC50 hGLP-1 R [pM] [3] [pM]
Y[Aib]EGTFTSDLSIQK([γGlu-Stearoyl])EKRAA[Aib]EFIEWLKNTGPSSGAPPPS-NH2 (N-terminus assumed; SMILES CCCCCCCCCCCCCCCCCC(=O)N[C@@H](CCC(=O)NCCCC[C@H](NC(=O)[C@H](CCC(N)=O)NC(=O)[C@@H](NC(=O)[C@H](CO)NC(=O)[C@H](CC(C)C)NC(=O)[C@H](CC(=O)O)NC(=O)[C@H](CO)NC(=O)[C@@H](NC(=O)[C@H](Cc1ccccc1)NC(=O)[C@@H](NC(=O)CNC(=O)[C@H](CCC(=O)O)NC(=O)C(C)(C)NC(=O)[C@@H](N)Cc1ccc(O)cc1)[C@@H](C)O)[C@@H](C)O)[C@@H](C)CC)C(=O)N[C@@H](CCC(=O)O)C(=O)N[C@@H](CCCCN)C(=O)N[C@@H](CCCNC(=N)N)C(=O)N[C@@H](C)C(=O)N[C@@H](C)C(=O)NC(C)(C)C(=O)N[C@@H](CCC(=O)O)C(=O)N[C@@H](Cc1ccccc1)C(=O)N[C@H](C(=O)N[C@@H](CCC(=O)O)C(=O)N[C@@H](Cc1c[nH]c2ccccc12)C(=O)N[C@@H](CC(C)C)C(=O)N[C@@H](CCCCN)C(=O)N[C@@H](CC(N)=O)C(=O)N[C@H](C(=O)NCC(=O)N1CCC[C@H]1C(=O)N[C@@H](CO)C(=O)N[C@@H](CO)C(=O)NCC(=O)N[C@@H](C)C(=O)N1CCC[C@H]1C(=O)N1CCC[C@H]1C(=O)N1CCC[C@H]1C(=O)N[C@@H](CO)C(N)=O)[C@@H](C)O)[C@@H](C)CC)C(=O)O) [SEQ ID NO: 15],8.2,5810,–
Y[Aib]EGTFTSDLSIQK([γGlu-Palmitoyl])ESRAAQDFIEWLKAGGPSSGAPPPS-NH2 (N-terminus assumed; SMILES CCCCCCCCCCCCCCCC(=O)N[C@@H](CCC(=O)NCCCC[C@H](NC(=O)[C@H](CCC(N)=O)NC(=O)[C@@H](NC(=O)[C@H](CO)NC(=O)[C@H](CC(C)C)NC(=O)[C@H](CC(=O)O)NC(=O)[C@H](CO)NC(=O)[C@@H](NC(=O)[C@H](Cc1ccccc1)NC(=O)[C@@H](NC(=O)CNC(=O)[C@H](CCC(=O)O)NC(=O)C(C)(C)NC(=O)[C@@H](N)Cc1ccc(O)cc1)[C@@H](C)O)[C@@H](C)O)[C@@H](C)CC)C(=O)N[C@@H](CCC(=O)O)C(=O)N[C@@H](CO)C(=O)N[C@@H](CCCNC(=N)N)C(=O)N[C@@H](C)C(=O)N[C@@H](C)C(=O)N[C@@H](CCC(N)=O)C(=O)N[C@@H](CC(=O)O)C(=O)N[C@@H](Cc1ccccc1)C(=O)N[C@H](C(=O)N[C@@H](CCC(=O)O)C(=O)N[C@@H](Cc1c[nH]c2ccccc12)C(=O)N[C@@H](CC(C)C)C(=O)N[C@@H](CCCCN)C(=O)N[C@@H](C)C(=O)NCC(=O)NCC(=O)N1CCC[C@H]1C(=O)N[C@@H](CO)C(=O)N[C@@H](CO)C(=O)NCC(=O)N[C@@H](C)C(=O)N1CCC[C@H]1C(=O)N1CCC[C@H]1C(=O)N1CCC[C@H]1C(=O)N[C@@H](CO)C(N)=O)[C@@H](C)CC)C(=O)O) [SEQ ID NO: 10],15.1,40000,13.2
Y[Aib]EGTFTSDLSIQK([γGlu-Palmitoyl])ESRAAQEFIEWLKAGGPSSGAPPPS-NH2 (N-terminus assumed; SMILES CCCCCCCCCCCCCCCC(=O)N[C@@H](CCC(=O)NCCCC[C@H](NC(=O)[C@H](CCC(N)=O)NC(=O)[C@@H](NC(=O)[C@H](CO)NC(=O)[C@H](CC(C)C)NC(=O)[C@H](CC(=O)O)NC(=O)[C@H](CO)NC(=O)[C@@H](NC(=O)[C@H](Cc1ccccc1)NC(=O)[C@@H](NC(=O)CNC(=O)[C@H](CCC(=O)O)NC(=O)C(C)(C)NC(=O)[C@@H](N)Cc1ccc(O)cc1)[C@@H](C)O)[C@@H](C)O)[C@@H](C)CC)C(=O)N[C@@H](CCC(=O)O)C(=O)N[C@@H](CO)C(=O)N[C@@H](CCCNC(=N)N)C(=O)N[C@@H](C)C(=O)N[C@@H](C)C(=O)N[C@@H](CCC(N)=O)C(=O)N[C@@H](CCC(=O)O)C(=O)N[C@@H](Cc1ccccc1)C(=O)N[C@H](C(=O)N[C@@H](CCC(=O)O)C(=O)N[C@@H](Cc1c[nH]c2ccccc12)C(=O)N[C@@H](CC(C)C)C(=O)N[C@@H](CCCCN)C(=O)N[C@@H](C)C(=O)NCC(=O)NCC(=O)N1CCC[C@H]1C(=O)N[C@@H](CO)C(=O)N[C@@H](CO)C(=O)NCC(=O)N[C@@H](C)C(=O)N1CCC[C@H]1C(=O)N1CCC[C@H]1C(=O)N1CCC[C@H]1C(=O)N[C@@H](CO)C(N)=O)[C@@H](C)CC)C(=O)O) [SEQ ID NO: 39],8.5,19300,4.3
Y[Aib]EGTFTSDLSIQK([βAla-βAla-Stearoyl])EKRAA[Aib]EFIEWLKNTGPSSGAPPPS-NH2 (N-terminus assumed; SMILES CCCCCCCCCCCCCCCCCC(=O)NCCC(=O)NCCC(=O)NCCCC[C@H](NC(=O)[C@H](CCC(N)=O)NC(=O)[C@@H](NC(=O)[C@H](CO)NC(=O)[C@H](CC(C)C)NC(=O)[C@H](CC(=O)O)NC(=O)[C@H](CO)NC(=O)[C@@H](NC(=O)[C@H](Cc1ccccc1)NC(=O)[C@@H](NC(=O)CNC(=O)[C@H](CCC(=O)O)NC(=O)C(C)(C)NC(=O)[C@@H](N)Cc1ccc(O)cc1)[C@@H](C)O)[C@@H](C)O)[C@@H](C)CC)C(=O)N[C@@H](CCC(=O)O)C(=O)N[C@@H](CCCCN)C(=O)N[C@@H](CCCNC(=N)N)C(=O)N[C@@H](C)C(=O)N[C@@H](C)C(=O)NC(C)(C)C(=O)N[C@@H](CCC(=O)O)C(=O)N[C@@H](Cc1ccccc1)C(=O)N[C@H](C(=O)N[C@@H](CCC(=O)O)C(=O)N[C@@H](Cc1c[nH]c2ccccc12)C(=O)N[C@@H](CC(C)C)C(=O)N[C@@H](CCCCN)C(=O)N[C@@H](CC(N)=O)C(=O)N[C@H](C(=O)NCC(=O)N1CCC[C@H]1C(=O)N[C@@H](CO)C(=O)N[C@@H](CO)C(=O)NCC(=O)N[C@@H](C)C(=O)N1CCC[C@H]1C(=O)N1CCC[C@H]1C(=O)N1CCC[C@H]1C(=O)N[C@@H](CO)C(N)=O)[C@@H](C)O)[C@@H](C)CC) [SEQ ID NO: 18],–,4950,7.6
Y[Aib]QGTFTSDLSIQK([γGlu-Palmitoyl])DKRAA[Aib]EFIEWLKNTGPSSGAPPPS-NH2 (N-terminus assumed; SMILES CCCCCCCCCCCCCCCC(=O)N[C@@H](CCC(=O)NCCCC[C@H](NC(=O)[C@H](CCC(N)=O)NC(=O)[C@@H](NC(=O)[C@H](CO)NC(=O)[C@H](CC(C)C)NC(=O)[C@H](CC(=O)O)NC(=O)[C@H](CO)NC(=O)[C@@H](NC(=O)[C@H](Cc1ccccc1)NC(=O)[C@@H](NC(=O)CNC(=O)[C@H](CCC(N)=O)NC(=O)C(C)(C)NC(=O)[C@@H](N)Cc1ccc(O)cc1)[C@@H](C)O)[C@@H](C)O)[C@@H](C)CC)C(=O)N[C@@H](CC(=O)O)C(=O)N[C@@H](CCCCN)C(=O)N[C@@H](CCCNC(=N)N)C(=O)N[C@@H](C)C(=O)N[C@@H](C)C(=O)NC(C)(C)C(=O)N[C@@H](CCC(=O)O)C(=O)N[C@@H](Cc1ccccc1)C(=O)N[C@H](C(=O)N[C@@H](CCC(=O)O)C(=O)N[C@@H](Cc1c[nH]c2ccccc12)C(=O)N[C@@H](CC(C)C)C(=O)N[C@@H](CCCCN)C(=O)N[C@@H](CC(N)=O)C(=O)N[C@H](C(=O)NCC(=O)N1CCC[C@H]1C(=O)N[C@@H](CO)C(=O)N[C@@H](CO)C(=O)NCC(=O)N[C@@H](C)C(=O)N1CCC[C@H]1C(=O)N1CCC[C@H]1C(=O)N1CCC[C@H]1C(=O)N[C@@H](CO)C(N)=O)[C@@H](C)O)[C@@H](C)CC)C(=O)O) [SEQ ID NO: 38],11.2,11.4,6.7
Y[Aib]QGTFTSDLSIQK([γGlu-Palmitoyl])EKRAA[Aib]EFIEWLKNTGPSSGAPPPS-NH2 (N-terminus assumed; SMILES CCCCCCCCCCCCCCCC(=O)N[C@@H](CCC(=O)NCCCC[C@H](NC(=O)[C@H](CCC(N)=O)NC(=O)[C@@H](NC(=O)[C@H](CO)NC(=O)[C@H](CC(C)C)NC(=O)[C@H](CC(=O)O)NC(=O)[C@H](CO)NC(=O)[C@@H](NC(=O)[C@H](Cc1ccccc1)NC(=O)[C@@H](NC(=O)CNC(=O)[C@H](CCC(N)=O)NC(=O)C(C)(C)NC(=O)[C@@H](N)Cc1ccc(O)cc1)[C@@H](C)O)[C@@H](C)O)[C@@H](C)CC)C(=O)N[C@@H](CCC(=O)O)C(=O)N[C@@H](CCCCN)C(=O)N[C@@H](CCCNC(=N)N)C(=O)N[C@@H](C)C(=O)N[C@@H](C)C(=O)NC(C)(C)C(=O)N[C@@H](CCC(=O)O)C(=O)N[C@@H](Cc1ccccc1)C(=O)N[C@H](C(=O)N[C@@H](CCC(=O)O)C(=O)N[C@@H](Cc1c[nH]c2ccccc12)C(=O)N[C@@H](CC(C)C)C(=O)N[C@@H](CCCCN)C(=O)N[C@@H](CC(N)=O)C(=O)N[C@H](C(=O)NCC(=O)N1CCC[C@H]1C(=O)N[C@@H](CO)C(=O)N[C@@H](CO)C(=O)NCC(=O)N[C@@H](C)C(=O)N1CCC[C@H]1C(=O)N1CCC[C@H]1C(=O)N1CCC[C@H]1C(=O)N[C@@H](CO)C(N)=O)[C@@H](C)O)[C@@H](C)CC)C(=O)O) [SEQ ID NO: 8],9.8,18.3,5.3
